# From patent publication US20260117203A1, “MUTANT KETOREDUCTASE WITH INCREASED KETOREDUCTASE ACTIVITY AS WELL AS METHODS AND USES INVOLVING THE SAME” (Hoffmann-La Roche Inc., priority 2023, published 2026)
# Legend:
# Type in all cases: biochemical, Sporidiobolus salmonicolor
# [1] = substrate: C[C@@H]1CC(=O)c2ncnc(N3CCN(C(=O)OC(C)(C)C)CC3)c21; test: Kinetic characterization (app. KM, app. kcat), Table 9c, variant E00144; conditions: other: E00144; pH 7.0
# [2] = substrate: C[C@@H]1CC(=O)c2ncnc(N3CCN(C(=O)OC(C)(C)C)CC3)c21; test: Kinetic characterization (app. KM, app. kcat), Table 9c, variant E00158; conditions: other: E00158; pH 7.0
# [3] = substrate: C[C@@H]1CC(=O)c2ncnc(N3CCN(C(=O)OC(C)(C)C)CC3)c21; test: Kinetic characterization (app. KM, app. kcat), Table 9c, variant E00184 (second line); conditions: other: E00184, second line; pH 7.0
# [4] = substrate: C[C@@H]1CC(=O)c2ncnc(N3CCN(C(=O)OC(C)(C)C)CC3)c21; test: Kinetic characterization (app. KM, app. kcat), Table 9c, variant E00184 (first line); conditions: other: E00184, first line; pH 7.0
# [5] = substrate: C[C@@H]1CC(=O)c2ncnc(N3CCN(C(=O)OC(C)(C)C)CC3)c21; test: Kinetic characterization (app. KM, app. kcat), Table 9c, variant E00128; conditions: other: E00128; pH 7.0
# [6] = substrate: C[C@@H]1CC(=O)c2ncnc(N3CCN(C(=O)OC(C)(C)C)CC3)c21; test: Kinetic characterization (app. KM, app. kcat), Table 9c, wild type; conditions: other: WT; pH 7.0
protein,measurement,setting,value
"Sporidiobolus salmonicolor ketoreductase variant E00144, Trp97_Met241_Trp242_Ser245_Met316_Met342, SEQ ID NO: 3, His-tag (Sporobolomyces salmonicolor; … (protein) MAKIDNAVLPEGSLVLVTGANGFVASHVVEQLLEHGYKVRGTARSASKLANLQKRWDAKYPGRFETAVVEDMLKQGAYDEVIKGAAGVAHIASVVSWSNKYDEVVTPAIGGTLNALRAAAATPSVKRFVLTSSTVSALIPKPNVEGIYLDEKSWNLESIDKAKTLPESDPQKSLWVYAASKTEAELAAWKFMDENKPHFTLNAVLPNYTIGTIFDPETQSGSTSGWMMSLFNGEVSPALAMWPPSYYVSAVDIGLLHLGCLVLPQIERRRVYGTAGTFDWNTVLATFRKLYPSKTFPADFPDQGQDLSKFDTAPSMEILKSLGRPGWRSIEESIKDLVGSEMA",Km,[1],175.2 ± 9.9 µM
same,kcat,[1],0.103 ± 0.00333 s⁻¹
same,kcat/Km,[1],593 M⁻¹ s⁻¹
"Sporidiobolus salmonicolor ketoreductase variant E00158, Trp97_Lys238_Met241_Trp242_Ser245_Met316_Met342, SEQ ID NO: 6, His-tag (Sporobolomyces salmonicolor; … (protein) MAKIDNAVLPEGSLVLVTGANGFVASHVVEQLLEHGYKVRGTARSASKLANLQKRWDAKYPGRFETAVVEDMLKQGAYDEVIKGAAGVAHIASVVSWSNKYDEVVTPAIGGTLNALRAAAATPSVKRFVLTSSTVSALIPKPNVEGIYLDEKSWNLESIDKAKTLPESDPQKSLWVYAASKTEAELAAWKFMDENKPHFTLNAVLPNYTIGTIFDPETQSGSTSGWMMSLFNGEVSPKLAMWPPSYYVSAVDIGLLHLGCLVLPQIERRRVYGTAGTFDWNTVLATFRKLYPSKTFPADFPDQGQDLSKFDTAPSMEILKSLGRPGWRSIEESIKDLVGSEMA",Km,[2],299.7 ± 7.9 µM
same,kcat,[2],0.255 ± 0.00667 s⁻¹
same,kcat/Km,[2],853 M⁻¹ s⁻¹
"Sporidiobolus salmonicolor ketoreductase variant E00184 (second line so labelled; in Table 9b W97 V134 A224 K238 M241 W242 S245 G246 M316 M342, the mutations … (protein, second row labelled E00184, evidently E00185) MAKIDNAVLPEGSLVLVTGANGFVASHVVEQLLEHGYKVRGTARSASKLANLQKRWDAKYPGRFETAVVEDMLKQGAYDEVIKGAAGVAHIASVVSWSNKYDEVVTPAIGGTLNALRAAAATPSVKRFVLTSSVVSALIPKPNVEGIYLDEKSWNLESIDKAKTLPESDPQKSLWVYAASKTEAELAAWKFMDENKPHFTLNAVLPNYTIGTIFDPETQSGSTAGWMMSLFNGEVSPKLAMWPPSGYVSAVDIGLLHLGCLVLPQIERRRVYGTAGTFDWNTVLATFRKLYPSKTFPADFPDQGQDLSKFDTAPSMEILKSLGRPGWRSIEESIKDLVGSEMA",Km,[3],143.5 ± 5.5 µM
same,kcat,[3],0.525 ± 0.0133 s⁻¹
same,kcat/Km,[3],3660 M⁻¹ s⁻¹
"Sporidiobolus salmonicolor ketoreductase variant E00184, Trp97_Ala224_Lys238_Met241_Trp242_Ser245_Gly246_Met316_Met342, SEQ ID NO: 8, His-tag (Sporobolomyces … (protein) MAKIDNAVLPEGSLVLVTGANGFVASHVVEQLLEHGYKVRGTARSASKLANLQKRWDAKYPGRFETAVVEDMLKQGAYDEVIKGAAGVAHIASVVSWSNKYDEVVTPAIGGTLNALRAAAATPSVKRFVLTSSTVSALIPKPNVEGIYLDEKSWNLESIDKAKTLPESDPQKSLWVYAASKTEAELAAWKFMDENKPHFTLNAVLPNYTIGTIFDPETQSGSTAGWMMSLFNGEVSPKLAMWPPSGYVSAVDIGLLHLGCLVLPQIERRRVYGTAGTFDWNTVLATFRKLYPSKTFPADFPDQGQDLSKFDTAPSMEILKSLGRPGWRSIEESIKDLVGSEMA",Km,[4],471.7 ± 34.6 µM
same,kcat,[4],0.355 ± 0.0167 s⁻¹
same,kcat/Km,[4],753 M⁻¹ s⁻¹
"Sporidiobolus salmonicolor ketoreductase variant E00128, Trp97_Met241_Trp242_Ser245, SEQ ID NO: 2, His-tag (Sporobolomyces salmonicolor; F97W/L241M/M242W/Q245S) (protein) MAKIDNAVLPEGSLVLVTGANGFVASHVVEQLLEHGYKVRGTARSASKLANLQKRWDAKYPGRFETAVVEDMLKQGAYDEVIKGAAGVAHIASVVSWSNKYDEVVTPAIGGTLNALRAAAATPSVKRFVLTSSTVSALIPKPNVEGIYLDEKSWNLESIDKAKTLPESDPQKSLWVYAASKTEAELAAWKFMDENKPHFTLNAVLPNYTIGTIFDPETQSGSTSGWMMSLFNGEVSPALAMWPPSYYVSAVDIGLLHLGCLVLPQIERRRVYGTAGTFDWNTVLATFRKLYPSKTFPADFPDQGQDLSKFDTAPSLEILKSLGRPGWRSIEESIKDLVGSETA",Km,[5],162.8 ± 7.8 µM
same,kcat,[5],0.0967 ± 0.00167 s⁻¹
same,kcat/Km,[5],592 M⁻¹ s⁻¹
"Sporidiobolus salmonicolor ketoreductase, wild type (WT), UniProt Q9UUN9, SEQ ID NO: 1 (Sporobolomyces salmonicolor) (protein) MAKIDNAVLPEGSLVLVTGANGFVASHVVEQLLEHGYKVRGTARSASKLANLQKRWDAKYPGRFETAVVEDMLKQGAYDEVIKGAAGVAHIASVVSFSNKYDEVVTPAIGGTLNALRAAAATPSVKRFVLTSSTVSALIPKPNVEGIYLDEKSWNLESIDKAKTLPESDPQKSLWVYAASKTEAELAAWKFMDENKPHFTLNAVLPNYTIGTIFDPETQSGSTSGWMMSLFNGEVSPALALMPPQYYVSAVDIGLLHLGCLVLPQIERRRVYGTAGTFDWNTVLATFRKLYPSKTFPADFPDQGQDLSKFDTAPSLEILKSLGRPGWRSIEESIKDLVGSETA",Km,[6],11.9 ± 1.1 µM
same,kcat,[6],0.00817 ± 0.000333 s⁻¹
same,kcat/Km,[6],683 M⁻¹ s⁻¹
